In the DeepSol protein solubility set:

Assay: soluble on expression in E. coli; label from the status in PepcDB or PDB records
For “QAMKELSKSDRTRQFIIESTAPVFNVKGLAGTSLTDLTEATNLTKGSIYGNFENKEAVAIAAFDYNWGHVKSVLTAKVQACNTYKEMLLVYSSMYNDADGSLFPVGGCPLLNTTIEADDTHDALRKKAGEAILSWKKNLVTIIKKGIQAKEFRPDTDVTKIAFSMIALVEGAILIHRATKNRAYSDYVFESLEDLIAGIEVKKK”, the “soluble on expression in E. coli” value was “soluble”.
For “MAHHHHHHMSSYRSDVDPFKEIRVLPREAAQLRHHLSRINHALQTKYFVAAELSELALQPDRSDEFLALYKAEIYRVVAKLNMNAKKQYTVTVDPLRLTTGFEFKRGADRKDNLGTAVTAATVEGLTSPDVHAKWTASLVETSRLLAQQHAINPNCQALSSALQSTPSSQQTQGLNGGGGAAAVGSDVIGDASTCAIDSDVRKANKESFLFSTPPEFAGFAPSGASPGAP”, the “soluble on expression in E. coli” value was “not soluble”.
For “MCINLQKMCKKCAKMCKICAKVCKKCAKNVQKKCKKCGKMCKKCAKKCLKKSKFSDPRNPKMLPTSLLVCSTGIPIECSAELLSKFKTRRI”, the “soluble on expression in E. coli” value was “soluble”.
In the case of “MASTARSLRYALAILTTSLVTPSVWAHAHLTHQYPAANAQVTAAPQAITLNFSEGVETGFSGAKITGPKNENIKTLPAKRNEQDQKQLIVPLADSLKPGTYTVDWHVVSVDGHKTKGHYTFSVK”, the “soluble on expression in E. coli” value is reported as “soluble”.
For “MMQVLTRPPSGMPALVLNADFRPLSYYPLSLWPWQEVIKAVFLDRVDVVASYDQVIHSPSCEMRLPSVVALKQYVPQERPPAFTRFNLFLRDSFSCQYCGSPEDLTFDHVIPRSRGGRTTWENIVTACAPCNLSKGGRTPREAGMQPFHTARRPSMYELQERGRRFPPGRLHVSWLDYLYWDIELEALEHHHHHH”, the “soluble on expression in E. coli” value was “not soluble”.
In the case of “MAGDPMNEEQRKSTSIDILAERDKKTKDYSKYFEHVYQPPSLKEARKRGKEEVNYNDDFQIDEKYRNMGQGKTFLIKTYGCQMNAHDTEVMAGILGALGYTPTEDINHADVILINTCAIRENAENKVFSEIGNLKHLKKEKPETVIGVCGCMSQEESVVNKILKSYQNVDMIFGTHNIHRLPEILEEAYLSKAMVVEVWSKEGDVIENLPKVREGNIKAWVNIMYGCDKFCTYCIVPFTRGKERSRRPEDIIDEVRDLARQGYKEITLLGQNVNAYGKDIDGLAYGLGDLLEDISKIDIPRVRFTTSHPWDFTDRMIEVIANGGNIVPHVHLPVQSGNNAVLKIMGRKYTRESYLDLVNRIKTHIPNVALTTDIIVGYPNETDEQFEETLTLYDEVEFEHAYTYIYSQRDGTPAAKMNDNVPLDVKKDRLQQLNKKVACYSERAMQQYEGQTVQVLCEGVSKKDDTVLSGYTSKNKLVNFKAPKSMIGKIVNVYIDEAKQFSLNGTFISVNDKTVVTQLEHHHHHH”, the “soluble on expression in E. coli” value is reported as “soluble”.
In the case of “SGGRPIQFFRRLAIWKYMKDYFPVSLVKTAELDPSRNYIAGFHPHGVLAAGAFLNLCTESTGFTSLFPGIRSYLMMLTVWFRAPFFRDYIMSGGLVSSEKVSADHILSRKGGGNLLAIIVGGAQEALDARPGAYRLLLKNRKGFIRLALMHGAALVPIFSFGENNLFNQVENTPGTWLRWIQNRLQKIMGISLPLFHGRGVFQYSFGLMPFRQPITTIVGKPIEVQMTPQPSREEVDRLHQRYIKELCKLFEEHKLKFNVPEDQHLEFC”, the “soluble on expression in E. coli” value is reported as “soluble”.
With “ADPVMLEIFNNRFMSVAEQMGYTLQNTAHSVNIKERLDFSCAIFDGKGNLIANAPHIPVHLGSMGECVKYLIRARSVEMTAGDVYLINSPYHGGTHLPDLTVVTPMSGNLGEILFYLASRGHHADVGGVTPGSMPPDSRTIEEEGVLSEGMKIVEQGRFLEEKLRLWLGSGKYPARNPDQNVADIRAQVAANEKGLQELHRMVEEFSLETVEAYMGHVQDNAEEAVRRVIDRLEDGEFTYPLDDGNAIKVKVKIDRENRNAKIDFSGTSSQLPSNFNAPASVCLAAVLYAFRTLVKSDIPLNAGCLRPLEIIIPEGSMLKPEPPASVVAGNVETSQYIVDAIFGALGSLAASQGTMNNFTFGNADFQYYETICGGSGAGPGFSGTDAVHTHMTNSRITDPEVLETRFPVLLEEFSIRQGSGGEGEFRGGNGVVRKFRFLKDMDAAILSSHRKFPPFGLKGGMPGKCGKNTLIRRDGSVIEAGGKAELKLKSEDVFVIETPGGGGYGRPENFRPEK” the “soluble on expression in E. coli” value was “not soluble”.
With “MSLKQEKLALVESALEDFYGDQQFASSLRESVLYSIHAGGKRIRPFLLLEVLEALQVTIKPAHAQVATALEMIHTGSLIHDDLPAMDDDDYRRGRLTNHKKFGEAMAILAGDALFLDSYALIAQADLPSQIKVDLIANLSLASGSLGMVAGQVLDMEGEHQHLSLEELQTIHANKTGKLLAYPFQAAAIIAELSPEMQVKLKTVGELIGLAFQVRDDVLDVTASFEEIGKTPQKDLQAEKSTYPALLGLEESIAFCNQTLDQANEKLEEIAQQLPFETESIVSVVESLRINGEGHHHHHH” the “soluble on expression in E. coli” value was “soluble”.
In the case of “RTFRHYDAYRSQSGTTGTDAARFILSQSGINDVGVQKISGDLTDNYNGQTKILSLSEATADSTSVAAIGVAAHECGHAVQDHVNYWPMRLRTALVP”, the “soluble on expression in E. coli” value is reported as “not soluble”.
For “MGSDKIHHHHHHMQIVQIEQAPKDYISDIKIIPSKSLLLITSWDGSLTVYKFDIQAKNVDLLQSLRYKHPLLCCNFIDNTDLQIYVGTVQGEILKVDLIGSPSFQALTNNEANLGICRICKYGDDKLIAASWDGLIEVIDPRNYGDGVIAVKNLNSNNTKVKNKIFTMDTNSSRLIVGMNNSQVQWFRLPLCEDDNGTIEESGLKYQIRDVALLPKEQEGYACSSIDGRVAVEFFDDQGDDYNSSKRFAFRCHRLNLKDTNLAYPVNSIEFSPRHKFLYTAGSDGIISCWNLQTRKKIKNFAKFNEDSVVKIACSDNILCLATSDDTFKTNAAIDQTIELNASSIYIIFDYEN”, the “soluble on expression in E. coli” value was “not soluble”.
With “MGGAVEVSATINNVGNYNAEEVVQLYIRDIVGNVTRPIKELKGFQRITLGKGESMVVTFKLHTDELAFYNQQMEYKPEAGLFHVWIGGDSSTTLKTEFEVTDLEHHHHHH” the “soluble on expression in E. coli” value was “not soluble”.
In the case of “MATLLRSLALFKRNKDKPPITSGSGGAIRGIKHIIIVPIPGDSSITTRSRLLDRLVRLIGNPDVSGPKLTGALIGILSLFVESPGQLIQRITDDPDVSIRLLEVVQSDQSQSGLTFASRGTNMEDEADQYFSHDDPISSDQSRFGWFENKEISDIEVQDPEGFNMILGTILAQIWVLLAKAVTAPDTAADSELRRWIKYTQQRRVVGEFRLERKWLDVVRNRIAEDLSLRRFMVALILDIKRTPGNKPRIAEMICDIDTYIVEAGLASFILTIKFGIETMYPALGLHEFAGELSTLESLMNLYQQMGETAPYMVILENSIQNKFSAGSYPLLWSYAMGVGVELENSMGGLNFGRSYFDPAYFRLGQEMVRRSAGKVSSTLASELGITAEDARLVSEIAMHTTEDKISRAVGPRQAQVSFLHGDQSENELPRLGGKEDRRVKQSRGEARESYRETGPSRASDARAAHLPTGTPLDIDTASESSQDPQDSRRSADALLRLQAMAGISEEQGSDTDTPIVYNDRNLLD”, the “soluble on expression in E. coli” value is reported as “not soluble”.
With “MATMDEKPLYGLERTVFRQLLHLFSRYADVIEKVILFGSRARGDYKEGSDIDLAIKFRKPGGPLYLLQSDLDELPIIYPIDVVDYNQIHNEQLKMNIDQEGKTIFQTNEHGKVMVTMSRLMDRFYDFERALSKLRQSAARDAQTDDLVVDATIQRFEFTYELAWKWMKLYLEHQGYAEVTSPRKTIREAFREGLIQDGETWLRMLEDRNRTSHTYDEETAMDIYERIRIHYIPLFDRLLDEMKQRLDSAT” the “soluble on expression in E. coli” value was “not soluble”.
For “MSLKPFSEPIIRCAKARAYRIPTDRPEADGTFAWTDTTIVVATLDAGDAHGIGYTYTDASAAALIERMLAPALDGRSAFDIGGALAALRRAVRNVGRGGVAATAISALDAALWDAKAKLLGLPLAKLLGGVRDAVPVYGSGGFTSYDEHALRAQLEGWRAQGLHACKIKVGSAPRDDPARVRIARDALGGGVALFVDANGAFAPHDALAFAQRIAECDVRWFEEPVSADDIDGLRFVRERLAAGVDVAAGEYGYTLDDFRVLLASGALDVLQADATRCGGVSGFLEAATLADAFHRDLSAHCAPALHRHVCCAAPRVRHVEWFHDHARIERMLFDGAPTPRDGAIAPDMSRPGLGIELKAQDAARFAVEGHHHHHH”, the “soluble on expression in E. coli” value was “not soluble”.
In the case of “QVIEVLNKQVADWSVLFTKLHNFHWYVKGPQFFTLHEKFEELYTESATHIDEIAERILAIGGKPVATMKEYLEISSIQEAAYGETAEGMVEAIMKDYEMMLVELKKGMEIAQNSDDEMTSDLLLGIYTELEKHAWMLRAFLN”, the “soluble on expression in E. coli” value is reported as “soluble”.
